Where “and” joins values, the source holds several entries; their conditions need not be identical. Identical values can stand only once.
Key:
[1] = molecular target: T1, TR7-Fc fusion protein (Ala-Asp-Pro fused to E52-G184 of TR7, SEQ ID NO:3, fused to the Fc region) (human, UniProt O14763 52-184); assay: SPR (BIAcore 2000), TR7-Fc amine-coupled to CM5 chip, antibody as analyte, 1:1 Langmuir model, double-reference subtraction, mean±STD of three experiments
T1 construct: Expressed in baculovirus with the GP signal peptide; it is read as TR7; also called TR7-Fc receptor; TRAILR2; not shown: Fc region
Protocol: (§1) TR7-Fc and TR2-Fc were immobilized on individual flow cells of a BIAcore CM5 sensor chip (BIAcore, Cat# BR-1000-14). Amine coupling (BIAcore, Cat# BR-1000-50) was used to covalently bind each receptor to the dextran matrix on the sensor chip. The optimal pH for this coupling was analyzed using preconcentration experiments ranging from pH 4-7 and was determined to be pH 4.0 based on the slope of the binding. The actual coupling was performed using the manual injection mode. A target level of 200 relative units (RU) was set as the goal for both flow cells. A response of 1000 RU correlates to a change in surface concentration of about 1 ng/mm² for proteins. The molecular weight of the TR7 and TR2 fusion proteins was nearly identical. The concentration of both receptors for immobilization was 5 μg/ml in 10 mM acetate, pH 4.0 (BIAcore, Cat# BR-1003-49). The entire experiment was performed at a flow rate of 5 μL/min. Contact time for the N-ethyl-N′-(3-dimethylaminoprolpyl)carbodiimide hydrochloride/Ethanolamine hydrochloride-NaOH, pH 8.5 (EDC/NHS) injection was 3 minutes. […]
(§2) Analysis of CM005G08 kinetics was performed using the BIAcore 2000 instrument with the 2000 control software, version 3.1.1. […] The off rate of CM005G08 was determined by washing the complex in the presence of HBS-EP buffer for 10 minutes. […]
(§3) The binding data were analyzed using the BIAevaluation software, version 3.1. […]

[2] = molecular target: T1, TR7-Fc fusion protein (Ala-Asp-Pro …); assay: competition ELISA: inhibition of biotinylated TRAIL binding to TR7-Fc captured on anti-human Fc
Protocol: Goat anti-human Fc is diluted to 0.1 micrograms/ml in coating buffer. An Immulon 4 microplate is coated with 100 microliters per well of the Goat anti-human Fc solution and incubated overnight at 4° C. The coating solution is decanted from the plate, and blocking solution is dispensed at 200 microliters per well. The plate is incubated at room temperature for 1 hour. After the 1 hour incubation period, the blocking solution is decanted from the plate and 1 microgram/mL of TR7-Fc is dispensed at 100 microliters/well and incubated for 2 hours at room temperature. After the incubation, the plate is washed five times manually using a Wheaton manifold.
Antibodies corresponding to scFvs of the present invention are (previously) prepared in a low binding dilution plate using diluent. The antibodies are prepared in duplicate and are diluted from the stock concentration with 2.5 fold dilutions for the 7 subsequent wells. If a purified form of the antibody is available, the starting concentration is 5 micrograms/mL. The positive control (TR7-Fc) is diluted from 5 micrograms/mL. 100 microliters is transferred into the ELISA plate and pre-incubated for 30 minutes at room temperature. […]
After the one-hour incubation, the plate is decanted and washed with PBST five times and blotted. […] The plate is immediately read at 450 nm using the spectrometer from Molecular Devices.

[3] = molecular target: T1, TR7-Fc fusion protein (Ala-Asp-Pro …); assay: SPR (BIAcore 2000), TR7-Fc amine-coupled to CM5 chip, antibody as analyte, separate fitting of the dissociation phase
Protocol: as §1, §2, §3

Kd [1]: 0.25 nM and 0.33 nM
IC50 [2]: 5.3 nM and 6.89 nM
koff [3]: 0.00266 s⁻¹ and 0.00268 s⁻¹
B1: CM005G08 whole IgG1 antibody comprising the VH and VL domains of the CM005G08 scFv (antibody, V domains shown)
VH: EVQLVQSGGGVERPGGSLRLSCAASGFTFDDYGMSWVRQAPGKGLEWVSGINWNGGSTGYADSVKGRVTISRDNAKNSLYLQMNSLRAEDTAVYYCAKILGAGRGWYFDLWGKGTTVTVSS
VL: SSELTQDPAVSVALGQTVRITCQGDSLRSYYASWYQQKPGQAPVLVIYGKNNRPSGIPDRFSGSSSGNTASLTITGAQAEDEADYYCNSRDSSGNHVVFGGGTKLTVLG
notes: Two lots were tested; also called CM05G08; IgG1 format of CM005G08
